# Laboratory results taken from the DeepSol protein solubility set.
# Test: soluble on expression in E. coli; label from the status in PepcDB or PDB records
row,Sequence,soluble on expression in E. coli
1,MLIKLTGGTVYDPANGIDGQVRNLFIRDGRIVHSLNGATPDQEYDLRGKVVMAGAIDMHTHIGGGKVTIARNLLPEDHRADPEPRRGLMRAGCGHAAPSTLTTGYRYAEMGYTAGFEPAVLPINARQAHMEMADVPLLDVGGYVMLGSDDFFLRLLSAGSDQKLINDYVAWTIRSAKAIGIKVVNPGGISAFKFNQRMLDLDEKHVYYGVTPRQILKSLARAVHELGVPHPLHVHGCNLGVPGNVETTLNTISGIEGLPMHLTHIQFHSYGVEGDRKFSSGAARIAEAINANKNITIDVGQILFGQTVTASGDSMRQHANAGHAHPDKWVCMDIECDAGCGVVPFKYRDKNFVNALQWCIGLETFLLIDDPWRVFLTTDHPNGAPFTTYPHLIRLLMDKSFRNDMLATINPEAAALSTLGSIDREYSLYEIAIMTRAGAARLLGLTDRGHLGAGAAADITVYTDQADKEKMFTRPDYVFKDGELVVRNGEVVKVVWGNLHTVQPEFDNGIEARLRDYFDRYHTMKLDNFVINDWEIEGDGRSKILVHPCHQGTRSLEHHHHHH,not soluble
2,MISDSKLLASAAWDAQSLNELKAKASEDPAANIRPVARQVEGMFVQMMLKSMRDALPKDGLFSSEHTRLYTSMYDQQIAQQMTAGKGLGLAEMMVKQMTPEQPLPEESTPAAPMKFPLETVVRYQNQTLSQLVQKAVPRNYDDSLPGDSRAFLAQLSLPAQLASQQSGVPHHLILAQAALESGWGQRQIRRENGEPSYNLFGVKASGNWKGQVTEITTTEYENGEAKKVKAKFRVYSSYLEALSDYVGLLTRNPRYAAVTTAASAEQGAQVLQDAGYATDPHYARKLTNMIQQMKSISDKVSKTYSMNIDNLF,not soluble
3,MEPWLVGIDLGGTTIKMAFVTTEGDIVHKWEIPTNTANRGEHIVADIARSLEKTLGQLGGAKERLLAAGIGAPGPVEEETGMLYETVNIGWTNYPLKQRLEEATGLPVSVDNDANLAALGEMWKGAGGGARHLLFVTLGTGVGGGVIANGAIVRGINGAGGEIGHMTMIPDGGARCNCGKTGCLETIASATGIVRIAKEKLTADERPSELRNGDVTAKAVFDAAKAGDALALEVVDEATYYLGWALANAANVTNPEKIVIGGGVSKAGDMLVERVAAHFRRFAFPRVAAGAKLVLATLGNDAGVIGAAWLAKELVGA,not soluble
4,MESDPMFIGFGYDRHPLVEGRRLVLAGVEIDAPLGSLGHSDGDVLSHAIIDALLGAGCLGDIGTWFPETKEYKDANSLDLLKETVKILEERGFSVVNVDATVVASIVKLSPYREKIVENLKSALETSRVNVKFKSGNTLGFEGEERGISAYAVCLVEEKGCTKST,not soluble
5,MILNILRLPHADEPTTSQSVQDYPLVHFSPRRHQKFRTIISVGDSDVIKDSSLTDEELYNIIHASPIARKSSTVSSTDSGYLGSSGASSSCVRSREGSTVSSTITVERTRRGGSTASSEPDSVADSEGAGSYSSFSSIASTASRMLGRAADCLVLMTKRNGWSGDAGSPSDEKGSSLDAQSWTTAIQSALMPVTPQSSVVGGKRIDKLKVPTEGKTRPPY,not soluble
6,MSGWNAYIDTMTAAAPSIKRCAIVGAADGSVWARTEADNVFKASEEELKTFVALFNDVTQVPAKGADIEGVHYVVPRTEESLIFGKKENTGFFAVKTKSAVLIAVYEGPNEVAAQVRKAVESMQTYLNNAGY,not soluble
7,SMSTKGTILVTGGAGYIGSHTAVELLAHGYDVVIADNLVNSKREAIARIEKITGKTPAFHETDVSDERALARIFDAHPITAAIHFAALKAVGESVAKPIEYYRNNLDSLLSLLRVMRERAVKRIVFSSSATVYGVPERSPIDETFPLSATNPYGQTKLMAEQILRDVEAADPSWRVATLRYFNPVGAHESGLIGEDPAGIPNNLMPYVAQVAVGKLEKLRVFGSDYPTPDGTGVRDYIHVVDLARGHIAALDALERRDASLTVNLGTGRGYSVLEVVRAFEKASGRAVPYELVARRPGDVAECYANPAAAAETIGWKAERDLERMCADHWRWQENNPRGFV,soluble
8,SNAVYGSEVESKIIEFTIVGADEIIAEKLGISVGDFVYKIIRLRIIHSIPTIMEHTWMPIAVIPGVEASVLEESIYSYIQNKLGLKVGTSVVRVKGIRPDDKEKQFMNLTNQDFLMRVEQVAYLTDGRTFEYSYADHLPETFEFETVITAKSYKEA,soluble
9,MNHVSHTGSYYAASANDKVQRSKLTEDITADICVVGSGFTGLSSALHLAEKGFKVVVVEGSRIGFGASGRNGGQLVNSYSRDMDFIERNYGKHVSTEMGQMAFEGSRIIKRLINDYDIKCDLRPGGVFAACNSKQLDEMAEKQKLWAKHGYHETELLSASDIQNHVGTERYVGGLLDKAGGHIHPLNLALGEAAAFEKLGGIIYEDSIVVDIVHGKKAVIKTDSGSVTADFVVVAGNAYLEGLLPKQQKQSMPCGTQIITTEVLPEAMQKQLLPTDVCVEDCNYLLDYFRLSGDGRLIYGGGTTYGAREPSKIESIIIPKMLKTFPQLKDVKIDYAWTGNFLLTLMRLPQFGRINDNVYYAQGYSGHGVTSTHLAGKVIADAITGQAERFDVFAGLPQYPFPGGRLFKTPYTAMGAWYYQMRDKLGILEHHHHHH,soluble
10,MSSLADLINLDLSDSTDQIIAEYIWIGGSGLDMRSKARTLPGPVTDPSQLPKWNYDGSSTGQAPGDDSEVIIYPQAIFKDPFRRGNNILVMCDAYTPAGEPIPTNKRHAAAKIFEDPSVVAEETWYGIEQEYTLLQKDIKWPVGWPVGGFPGPQGPYYCGVGADKAFGRDIVDSHYKACLYAGINVSGTNGEVMPGQWEFQVGPTVGIAAADQVWVARYILERITELAGVVLSLDPKPIPGDWNGAGAHTNYSTKSMREDGGYEVIKKAIEKLGLRHKEHIAAYGEGNERRLTGKHETADINTFLWGVANRGASIRVGRDTEQAGKGYFEDRRPASNMDPYTVTSMIAESTILWKP,soluble
11,MQSLTTALENLLRHLSQEIPATPGIRVIDIPFPLKDAFDALSWLASQQTYPQFYWQQRNGDEEAVVLGAITRFTSLDQAQRFLRQHPEHADLRIWGLNAFDPSQGNLLLPRLEWRRCGGKATLRLTLFSESSLQHDAIQAKEFIATLVSIKPLPGLHLTTTREQHWPDKTGWTQLIELATKTIAEGELDKVVLARATDLHFASPVNAAAMMAASRRLNLNCYHFYMAFDGENAFLGSSPERLWRRRDKALRTEALAGTVANNPDDKQAQQLGEWLMADDKNQRENMLVVEDICQRLQADTQTLDVLPPQVLRLRKVQHLRRCIWTSLNKADDVICLHQLQPTAAVAGLPRDLARQFIARHEPFTREWYAGSAGYLSLQQSEFCVSLRSAKISGNVVRLYAGAGIVRGSDPEQEWQEIDNKAAGLRTLLQME,soluble
12,AVPIAQKSEPHSLSSEALMRRAVSLVTDSTSTFLSQTTYALIEAITEYTKAVYTLTSLYRQYTSLLGKMNSEEEDEVWQVIIGARAEMTSKHQEYLKLETTWMTAVGLSEMAAEAAYQTGADQASITARNHIQLVKLQVEEVHQLSRKAETKLAEAQIEELKQKTQEEGEERAESEQEAYLRED,soluble
13,MGSDKIHHHHHHMGKSFYRFRSTNNLLDGYSELEKQTIYFARPEQLNDPMEGYRDIYWRGDLIAWKNLFAHYVFCLERISSLLLISGEDNKIDADHIPVFGSTDDLPTDSYKNLFRKIKARFLENKYVSALILAISKRSTPIRREELAFYYDCMHIPALKLIFDVYIEENLSQEGNRIDDKAFAGISGVVSNDFVGLLEKSITDGEADQVIVNELFKAKSHIKQQSNLIHKHNGTISSSKPNKNLLMIDFPSLYLNRLEEITFPKWYTSCFMSECKNSSVWGHYGNNHTGMCLIFDSENINDRSYIKLNGITGWGSSGPIYGDKAMEFHPIDYKKGFGEIDFFTSIGSLPIPVLNTMWYMDEAGNTSVCANKMNVDEDAWRSNYWSNFIRGLTVKSKDWEYENEYRLILHSSITDLSEKDRRTLTYDFSSLKGIIFGINTKEEDKLKTIKIIEDKCNKHSRSDFKFYQAYYCADENCIKSVEMSLVKFSGNV,not soluble
14,MLPSAPAPLAHFLLFLHLIHSARPEDGVPIETIHAPMFEDVFDVRIHEGADKGSRLTMSQDLQKSTEPLGHCFGQLETDVDWIEWKSSRSAFYTTAQMPISATKNSNNLVGSLHLLCAGNQMHTFPFRVHITHRNHHPPTFSKNSFKFHVPTTLPIGSVITTLEVKDQDPVIYNSERRLAFTKDEPLVDILQDGTLKLKSDLSILTPYTPQRMQILAIDYGSPQLFTIANITLIPVTVSMVRELHVNVATEEYQIFEWEHPQYGTVDKYRLGIRRDDQVVYEEELEAAKTLALTKIMLSNSMNVSFQVTAIDENGETSSEWTQIGPIDRDVICKGECSRGGTPLCYVGAFNRVEQFIDARGAHCLCYPGFMGVSCETIGSMWTLTTLDVFVDLIRAMANKLNSIECSQIAI,not soluble
15,MFPCLCTLKILTFQPKFQKIHDEMKALKAAGKQDEFAKKFVTKDAIFMGPLHEPANVTEAAKFAKSEMMAAVSKGEFNITIDEITPIGDVVIERCTIHAKVASGDKTGWSLCVWVKDGGAWKIRNSCTTFKVVPSA,not soluble
16,LEYSDSIDLLNMDLYDLMKLADRLTHYDAGETVSYAISYNINYTNYCTASCPICAFYVPYKNKRFGKGYELTKEQVRKEALIAKQKGATEIHIVGGFDPDLSIEYYEDIFRTIRGIMPNVAIKAFTIPEIDFIARTTGNSIKETVLRFMDAGMNAHTGGGAEIFDQEIRKYITTPEKVSGEKWLEDAKIIHSLGLKGNSTMTYGHIEGWEHIIDHMIRLRDNQIEVPGFLSFIPLKFSPENTALLRSGRVHGPAPVDKDLKVIALARIIMGRAIRNISVYWVAIGKLTAQIAINGGGNDLVGTAYSEKVFGATDRKTSTTTEELNNMIRQAGKIPGVR,not soluble
17,MNIMEIEKTNRMNALFEFYAALLTDKQMNYIELYYADDYSLAEIADEFGVSRQAVYDNIKRTEKILETYEMKLHMYSDYVVRSEIFDDMIAHYPHDEYLQEKISILTSIDNRE,soluble
18,MAHHHHHHMLRLCRVSLRVQSHQKKRAQHPNAGTRFGRVYNRGFIRYGFGGFGMSVYTPKKDRRFRVQPLPSLHANSLADDTPLVTTTRTLSPNFRAFALQDGGVFFTHPSHEQVMRVGQNILAEETKATGMTSMDTYVNSRIQSIIAENTVENVALSHWRRRHMWNLVRTHGKLQRHWGVSDATKGARSNIYGRPS,not soluble
19,MSLTESGSCSTARQAKQKRKSHSLSIRRTNSSEQERTGLPREMLEGQDSKLPSSVRSTLLELFGQIEREFENLYIENLELRREIDTLNERLAGEGQAIDGAELSKGQLKTKASHSTSQLSQKLKTTYKASTSKIVSSFKTTTSRAICQLVKEYIGHRDGIWDVSVTRTQPIVLGTASADHTAMLWSIETGKCLVKYAGHVGSVNSIKFHPSEQLALTASGDQTAHIWRYVVQLPTPQPVADTSQQISGEDEIECSDKDEPDIDGDVSSDCPTVRVPLTSLKSHQGVVIAADWLVGGKQVVTASWDRTANMYDVETSELVHSLTGHDQELTHCCTHPTQRLVVTSSRDTTFRLWDFRDPSIHSVNVFQGHTDTVTSAVFTVGDNVVSGSDDRTVKVWDLKNMRSPIATIRTDSAINRINVCVGQKIIALPHDNRQVRLFDMSGVRLARLPRSSRQGHRRMVCCSAWSEDHPICNLFTCGFDRQAIGWNINIPALLQEKEGHHHHHH,not soluble
20,MTFFFDDRDQAVPYTATADDVAPTGQQIWQELQSGKWGEIAPFTVTPEMLEAAREARRQEIEAWRTEQEAKPFTFEWNGRIWNAGPDSLGRLSPVVMLAKSVTAQTHMAWSDADNQQVKLSMPELEELAESQKTALLTEAESVIRQPGRAVRLNRETDESGEARGRASVFPESVRSVVYAM,not soluble
